Where “and” joins values, the source holds several entries; their conditions need not be identical. Equal entries are not always repeated. Non-standard residues stand in square brackets, D forms with d. No end group written: not given here. KLH = keyhole limpet hemocyanin; Ahx = NCCCCCC(=O)O
Legend:
[1] = biological target: T1, Immunogen N2 = SWKPRSQQPDAPLG Ahx Cys KLH (human); test: ELISA of hybridoma supernatants
T1 construct: hPG residues 1 to 14 with linker, coupled to the KLH carrier; also called KLH-linked N-terminal peptide
T1 peptide: SWKPRSQQPDAPLG[Ahx]C-{KLH}

[2] = biological target: T2, Recombinant human progastrin (human, UniProt P01350 22-101); test: competition ELISA: hPG captured by a C-terminal polyclonal antibody; MAb 3 titrated against 10 µg/ml biotinylated N-terminal anti-hPG polyclonal antibody; streptavidin-HRP, luminescence, n=2
T2 construct: 80-residue progastrin (pre-progastrin without the signal peptide); In the cell assays the target is the progastrin secreted by the CRC cell lines; also called hPG; PG
T2 sequence: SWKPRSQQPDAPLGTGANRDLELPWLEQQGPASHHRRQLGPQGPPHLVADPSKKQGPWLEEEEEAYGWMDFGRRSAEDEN
Protocol: The ability of an anti-hPG monoclonal antibody to compete with an anti-hPG polyclonal antibody for binding to progastrin was determined using an ELISA with a “capture” anti-hPG antibody and a “detection” anti-hPG antibody. Anti-hPG MAb 3 was assayed as follows: 96-well plates were pre-coated with C-terminal progastrin polyclonal antibodies raised against a peptide consisting of residues 71 to 80 of hPG. The plates were then incubated with […] progastrin was incubated, followed by addition of 10 μg/ml biotinylated N-terminal anti-hPG polyclonal antibody, raised against a peptide consisting of the amino acid sequence of SEQ ID NO:25, and increasing concentrations of anti-hPG MAb 3 monoclonal antibody. Binding of the biotinylated N-terminal anti-hPG polyclonal antibody was detected by incubating the plates with streptavidin-HRP followed by OPD, according to standard protocols. Binding was measured by quantifying luminescence.

[3] = biological target: T2, Recombinant human progastrin; test: SPR (Proteon), MAb captured on anti-mouse IgG, hPG injected
Protocol: To provide a more absolute quantification of affinity for the monoclonal antibodies, affinity constants were measured using the Proteon Technique (BioRad), according to Nahshol et al., 2008, Analytical Biochemistry 383:52-60, hereby incorporated by reference in its entirety. Briefly, an anti-mouse IgG antibody (50 μg/ml) was first coated on a sensor chip, making sure that the signal detected by the chip after injection of the antibody falls between 10,000 and 11,500 RU (response units). The murine monoclonal antibody to be tested was then injected (typical concentrations: 30 μg/ml). Sufficient binding of the antibody to be tested was determined based on a further signal of at least 500 RU on the sensor chip. A time-course of interaction between monoclonal anti-progastrin antibodies and progastrin was then measured by injecting varying concentrations of progastrin, for example 200, 100, 50, 25, and 12.5 nM, and the level of association detected. Typically, several channels are available to test multiple antibodies in parallel in a single experiment, making it possible to assay binding of test antibodies at varying concentrations of PG in parallel. Typically, one channel is reserved for a murine monoclonal antibody that is not specific to PG, as a control for non-specific binding, and another channel is injected with dilution buffer alone as a baseline for the background signal. Generally, no binding is detectable in the channels injected with non-specific murine antibody. Antibodies displaying a high level of association in this setting, which may result in saturation of the trapped monoclonal antibody by progastrin, can be tested against lower progastrin concentrations (50, 25, 12.5, 6.25 and 3.125 nM), allowing for a more refined measurement.
Affinity constants (KD) were calculated as the ratio between the dissociation constant (kd) and the association constant (ka). Experimental values were validated by analyzing the statistically relevant similarity between experimental curves based on binding measurements and theoretical profiles. The mathematical model used in the Proteon experiments to select whether experimental curves fit with the theoretical model was the Langmuir model, based on a 1:1 interaction between progastrin molecules and anti-progastrin monoclonal antibodies.

[4] = biological target: T2, Recombinant human progastrin; test: ELISA on 50 ng coated hPG, antibody titrated, OD 492 nm, n=2
Protocol: After blocking, the wells were washed three times and the primary antibody—the antibody to be assayed—added. For initial screening of fused splenocytes, 50 μL of culture supernatant from each culture to be assayed was added to each well in the plate. In assays performed on monoclonal antibodies, 100 μL of the test antibody in PBS and 0.1% Tween-20 was added to each well. Plates were then incubated for 2 hours at 22° C., after which the primary antibody solution was discarded and replaced, after a wash step (3×100 μL wash solution, as noted above), with blocking solution containing the secondary antibody, which binds the primary antibody and is coupled to an enzyme. The secondary antibody was a goat anti-mouse IgG (Fc) antibody coupled to horseradish peroxidase. […] The reaction was then stopped by adding 50 μL of 4N sulfuric acid and the amount of substrate catalyzed determined by measuring the optical density (O.D.) at 492 nm. […] Samples were scored as positive for anti-PG antibodies if the measured O.D. was between 0.2 and 1.5. […]
Relative affinity of exemplary monoclonal antibodies was measured using the ELISA method described above, in which wells were coated with a peptide solution containing 50 ng progastrin and then incubated in the presence of increasing concentrations of each monoclonal antibody as follows: […]

[5] = biological target: T2, Recombinant human progastrin; test: cell-based or functional assay
[6] = biological target: T2, Recombinant human progastrin; test: cell-based or functional assay; remark: listed apart in the source
[7] = biological target: T2, Recombinant human progastrin; test: cell-based or functional assay; remark: listed apart in the source
[8] = biological target: T2, Recombinant human progastrin; test: cell-based or functional assay; remark: listed apart in the source

Row | Binder | binding result [1] | IC50 (read off the curve) [2] [ng/mL] | Kd [3] | EC50 (read off the curve) [4] [ng/mL] | surviving LS 174T cells, % of control MAb-treated cells (cell numbers - T0) [5] | surviving SW 620 cells, % of control MAb-treated cells (cell numbers - T0) [6] | viable LS174T cells (CellTiter 96 absorbance at 490 nm), % of control MAb; anti-hPG MAb 8 pre-incubated with 20-fold molar excess hPG [7] | surviving HCT-116 cells, % of control MAb-treated cells (cell numbers - T0) [8]
1 | Anti-hPG MAb 3 (antibody, V domains shown, Mouse IgG1, hybridoma 6B5B11C10, raised against immunogen N2; also called 6B5B11C10) VH: EVQLQQSGTVLARPGASVKMSCKASGYIFTSYWVHWVKQRPGQGLEWIGGFYPGNSDSRYNQKFKGKATLTAVTSASTAYMDLSSLTNEDSAVYFCTRRDSPQYWGQGTTLTVSS VL: DVLMTQTPLSLPVSLGDQASISCRSSQSIVHSNGNTYLEWYLQKPGQSPKLLIYKVSNRFSGVPDRFSGSGSGTDFTLKISRLEAEDLGVYYCFQGSHVPFTFGGGTKLEIK | binds | ~4000 | 6.4 nM |  |  |  |  | 
2 | Anti-hPG MAb 16 (antibody, V domains shown, Mouse IgG1, hybridoma 1E9D9B6, raised against immunogen N2; also called 1E9D9B6) VH: QVQLQQSGAELVKPGASVKLSCKASGYTFTSYYMYWVKQRPGQGLEWIGEINPSNGGTNFNEKFKSKATLTVDKSSSTAYMQLSSLTSEDSAVYYCTRGGYYPFDYWGQGTTLTVSS VL: not shown |  |  | 0.2 nM and 0.278 nM | ~2 | 61 % of control | 58 % of control |  | 
3 | Anti-hPG MAb 8 (antibody, V domains shown, Mouse IgG1, hybridoma 1C10D3B9, raised against immunogen C1; also called 1C10D3B9) VH: EVQLVESGGGLVKPGGSLKLSCAASGFTFTTYAMSWVRQTPEKRLEWVATISSGGTYTYYPDSVKGRFTISRDNAKNALYLQMSSLRSEDTAMYYCATQGNYSLDFWGQGTSLTVSS VL: DIVMTQAASSNPVTLGTSASISCRSSKSLRHTKGITFLYWYLQKPGQSPQLLIYQMSNLASGVPDRFSSSGSGTDFTLRISRVEAEDLGVYYCAQNLELPLTFGAGTKLELK |  |  | 0.1 nM and 0.108 nM |  | 42 % of control | 40 % of control | 148 % of control | 62 % of control
4 | Anti-hPG MAb 19 (antibody, V domains shown, Mouse IgG2, hybridoma 1B3B4F11, raised against immunogen N2; also called 1B3B4F11) VH: DVQLQESGPGLVKPSQSLSLTCTVTGYSITSDYAWNWIRQFPGNKLEWMGYISFSGYTSYNPSLKSRISVTRDTSRNQFFLQLTSVTTEDTATYYCAREVNYGDSYHFDYWGQGTIVTVSS VL: QLALTQSSSASFSLGASAKLTCTLSSQHRTYTIEWYQQQSLKPPKYVMEVKKDGSHSTGHGIPDRFSGSSSGADRYLSISNIQPEDEAIYICGVGDAIKGQSVFVFGGGTKVTVL |  |  | 0.7 nM and 0.779 nM |  | 84.5 % of control | 69 % of control |  | 88 % of control
5 | Anti-hPG MAb 4 (antibody, V domains shown, Mouse IgG1, hybridoma 20D2C3G2, raised against immunogen N2; also called 20D2C3G2) VH: QVQLQQSGAELMKPGASVKISCKATGYTFSSSWIEWLKQRPGHGLEWIGEFLPGSGSTDYNEKFKGKATFTADTSSDTAYMLLSSLTSEDSAVYYCATDGNYDWFAYWGQGTLVTVSA VL: DLVMTQTPLSLPVSLGDQASISCRSSQSLVHSSGVTYLHWYLQKPGQSPKLLIYKVSNRFSGVPDRFSGSGSGTDFTLKISRVEAEDLGVYFCSQSTHVPPTFGSGTKLEIK | binds |  | 3.5 nM | ~8 |  |  |  | 
6 | Anti-hPG MAb 13 (antibody, V domains shown, Mouse IgG1, hybridoma 2C6C3C7, raised against immunogen C1; also called 2C6C3C7) VH: EVQLVESGGGLVQPGGSLKLSCAASGFIFSSYGMSWVRQSPDRRLELVASINTFGDRTYYPDSVKGRFTISRDNAKNTLYLQMTSLKSEDTAIYYCARGTGTYWGQGTTLTVSS VL: not shown |  |  | 0.6 nM and 0.612 nM |  | 58 % of control | 48 % of control |  | 36 % of control

— patent US20110117086A1 (LES LABORATOIRES SERVIER, published 2011)
